Test results as given in article PMC8320243 (Circulation research, 2021).
Substitutions are numbered along the chain they refer to. In names and notes the source's numbering stands.

B1: cMyc-tagged RyR2 N-terminus (NT, residues 1-906), wild type (domain or fragment, UniProt Q92736 1-906, looked up)
chain: MADGGEGEDEIQFLRTDDEVVLQCTATIHKEQQKLCLAAEGFGNRLCFLESTSNSKNVPPDLSICTFVLEQSLSVRALQEMLANTVEKSEGQVDVEKWKFMMKTAQGGGHRTLLYGHAILLRHSYSGMYLCCLSTSRSSTDKLAFDVGLQEDTTGEACWWTIHPASKQRSEGEKVRVGDDLILVSVSSERYLHLSYGNGSLHVDAAFQQTLWSVAPISSGSEAAQGYLIGGDVLRLLHGHMDECLTVPSGEHGEEQRRTVHYEGGAVSVHARSLWRLETLRVAWSGSHIRWGQPFRLRHVTTGKYLSLMEDKNLLLMDKEKADVKSTAFTFRSSKEKLDVGVRKEVDGMGTSEIKYGDSVCYIQHVDTGLWLTYQSVDVKSVRMGSIQRKAIMHHEGHMDDGISLSRSQHEESRTARVIRSTVFLFNRFIRGLDALSKKAKASTVDLPIESVSLSLQDLIGYFHPPDEHLEHEDKQNRLRALKNRQNLFQEEGMINLVLECIDRLHVYSSAAHFADVAGREAGESWKSILNSLYELLAALIRGNRKNCAQFSGSLDWLISRLERLEASSGILEVLHCVLVESPEALNIIKEGHIKSIISLLDKHGRNHKVLDVLCSLCVCHGVAVRSNQHLICDNLLPGRDLLLQTRLVNHVSSMRPNIFLGVSEGSAQYKKWYYELMVDHTEPFVTAEATHLRVGWASTEGYSPYPGGGEEWGGNGVGDDLFSYGFDGLHLWSGCIARTVSSPNQHLLRTDDVISCCLDLSAPSISFRINGQPVQGMFENFNIDGLFFPVVSFSAGIKVRFLLGGRHGEFKFLPPPGYAPCYEAVLPKEKLKVEHSREYKQERTYTRDLLGPTVSLTQAAFTPIPVDTSQIVLPPHLERIREKLAENIHELWVMNKIELGWQYGP
B2: cMyc-tagged RyR2 N-terminus (NT, residues 1-906) with R420Q (domain or fragment, UniProt Q92736 1-906, looked up)
chain: B1 chain with R420Q

Target: the molecule itself
Assay: cross-linking

| Protein | stoichiometry N |
| --- | --- |
| B1 | 4 |
| B2 | 4 |
